Results taken from paper PMC10359280, “A maize epimerase modulates cell wall synthesis and glycosylation during stomatal morphogenesis” (Nature Communications, 2023).

Tests used:
[1] = target: T1, BZU3 (Zea mays, UniProt C0HI30); experiment: X-ray crystal structure; assay type: binding; settings: no ligand soak for 7XPP; with UDP-Glc 7XPO; with UDP-GlcNAc 7XPQ
T1 construct: gene ZEAMMB73_Zm00001d029151; residues 1-189 NAD domain, 190-355 sugar domain; homo-dimer
T1 sequence (C0HI30 1-355): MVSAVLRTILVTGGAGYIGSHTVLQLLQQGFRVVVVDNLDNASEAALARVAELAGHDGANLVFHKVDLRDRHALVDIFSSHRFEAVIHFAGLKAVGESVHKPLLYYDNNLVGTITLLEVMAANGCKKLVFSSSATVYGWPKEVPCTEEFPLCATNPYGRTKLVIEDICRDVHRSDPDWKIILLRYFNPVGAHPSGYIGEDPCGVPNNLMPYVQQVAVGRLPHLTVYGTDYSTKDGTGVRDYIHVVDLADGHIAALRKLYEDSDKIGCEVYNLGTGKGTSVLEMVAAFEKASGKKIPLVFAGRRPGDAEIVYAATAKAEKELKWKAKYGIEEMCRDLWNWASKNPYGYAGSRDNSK

[2] = target: BZU3 (maize UDP-glucose 4-epimerase), recombinant 6×His-BZU3 (maize); experiment: crystal structure; BZU3 (~5.0 mg/ml) crystallised by sitting-drop vapor diffusion, 100 mM sodium malonate pH 5.0, 12~16% PEG3350; apo form and crystals soaked with 5 mM UDP-Glc or UDP-GlcNAc
[3] = target: T1, BZU3; experiment: X-ray crystal structure, […] Å, soaked with […] ligand; assay type: binding; settings: ternary complex with NAD+, crystals at pH 5.0
[4] = substrate: CC(=O)N[C@H]1[C@@H](OP(=O)(O)OP(=O)(O)OC[C@H]2O[C@@H](n3ccc(=O)[nH]c3=O)[C@H](O)[C@@H]2O)O[C@H](CO)[C@H](O)[C@@H]1O; experiment: HPLC of UDP-GlcNAc/UDP-GalNAc, Michaelis-Menten; assay type: biochemical, Zea mays; settings: similar protocol (10 mM Tris-HCl pH 8.0, 30 °C)
[5] = substrate: CC(=O)N[C@H]1[C@@H](OP(=O)(O)OP(=O)(O)OC[C@H]2O[C@@H](n3ccc(=O)[nH]c3=O)[C@H](O)[C@@H]2O)O[C@H](CO)[C@@H](O)[C@@H]1O; experiment: HPLC of UDP-GlcNAc/UDP-GalNAc, Michaelis-Menten; assay type: biochemical, Zea mays; settings: similar protocol (10 mM Tris-HCl pH 8.0, 30 °C)
[6] = substrate: O=c1ccn([C@@H]2O[C@H](CO[P@@](=O)(O)O[P@@](=O)(O)O[C@H]3O[C@H](CO)[C@@H](O)[C@H](O)[C@H]3O)[C@@H](O)[C@H]2O)c(=O)[nH]1; experiment: HPLC of UDP-Glc/UDP-Gal, Michaelis-Menten; assay type: biochemical, Zea mays; settings: 10 mM Tris-HCl pH 8.0, 30 °C, 25 nM enzyme, 1 min
[7] = substrate: O=c1ccn([C@@H]2O[C@H](COP(=O)(O)OP(=O)(O)O[C@H]3O[C@H](CO)[C@H](O)[C@H](O)[C@H]3O)[C@@H](O)[C@H]2O)c(=O)[nH]1; experiment: HPLC of UDP-Glc/UDP-Gal, Michaelis-Menten; assay type: biochemical, Zea mays; settings: 10 mM Tris-HCl pH 8.0, 30 °C, 25 nM enzyme, 1 min

## NC(=O)c1ccc[n+]([C@@H]2O[C@H](COP(=O)(O)OP(=O)(O)OC[C@H]3O[C@@H](n4cnc5c(N)ncnc54)[C@H](O)[C@@H]3O)[C@@H](O)[C@H]2O)c1 [NAD^+]
[1]
  X-ray crystal structure: both Y157 and K161 directly interact with the ribose moiety of NAD^+

## BZU3 (maize UDP-glucose 4-epimerase), recombinant 6×His-BZU3 (enzyme)
[2]
  stoichiometry N: 2

## CC(=O)N[C@H]1[C@@H](OP(=O)(O)OP(=O)(O)OC[C@H]2O[C@@H](n3ccc(=O)[nH]c3=O)[C@H](O)[C@@H]2O)O[C@H](CO)[C@@H](O)[C@@H]1O [UDP-GlcNAc]
[3]
  X-ray crystal structure, 2.15 Å, soaked with 5 mM ligand: The structure of BZU3 in complex with NAD^+/UDP-GlcNAc was similar to that of BZU3/NAD^+/UDP-Glc

B1: BZU3 (Zea mays) (protein)
chain: MVSAVLRTILVTGGAGYIGSHTVLQLLQQGFRVVVVDNLDNASEAALARVAELAGHDGANLVFHKVDLRDRHALVDIFSSHRFEAVIHFAGLKAVGESVHKPLLYYDNNLVGTITLLEVMAANGCKKLVFSSSATVYGWPKEVPCTEEFPLCATNPYGRTKLVIEDICRDVHRSDPDWKIILLRYFNPVGAHPSGYIGEDPCGVPNNLMPYVQQVAVGRLPHLTVYGTDYSTKDGTGVRDYIHVVDLADGHIAALRKLYEDSDKIGCEVYNLGTGKGTSVLEMVAAFEKASGKKIPLVFAGRRPGDAEIVYAATAKAEKELKWKAKYGIEEMCRDLWNWASKNPYGYAGSRDNSK
notes: residues 1-189 NAD domain, 190-355 sugar domain; homo-dimer
[4]
  Km: 500 µM
[5]
  Km: 400 µM
[6]
  Km: 2670 µM
[7]
  Km: 1450 µM
